Reference: US20140044713A1 (KONINKLIJKE NEDERLANDSE AKADEMIE VAN WETENSCHAPPEN, published 2014)
Blank lines part the entries; values can stand above or below the binder they belong to.

Legend:
[1] = target: T1, LRP5 (endogenous) (human, UniProt O75197 32-1615); assay: TAP + mass spectrometry, HEK293 cells
T1 construct: whole, on cells

[2] = target: T2, LRP6 (endogenous) (human, UniProt O75581 20-1613); assay: TAP + mass spectrometry, HEK293 cells
T2 construct: whole, on cells

[3] = target: T3, Lgr4 (endogenous, or expression construct whose tag is not stated) (human, UniProt Q9BXB1 25-951); assay: TAP + mass spectrometry, HEK293 cells
T3 construct: whole, on cells; Endogenous protein of HEK293T / LS174T cells in TAP-MS; also called endogenous Lgr4

[4] = target: T3, Lgr4 (endogenous, or expression …); assay: TAP (anti-FLAG, anti-HA) + mass spectrometry, 293T cells incubated with the soluble tagged bait, Exp 8
Experimental: Left panel (Exps 1-7): HEK293T cells were transiently transfected, and LS174T cells were stably, transfected with the indicated tagged proteins. Right panel (Exps 8-9): HEK293T cells were incubated with the indicated tagged soluble proteins at 1 μg/ml. Sequential immunoprecipitation was performed by anti-FLAG and anti-HA antibodies and the associated complexes were analysed by mass spectrometry. Number of assigned spectra, number of unique peptides and the MASCOT Protein Score are given for selected identified proteins.

T2 sequence (O75581 20-1613): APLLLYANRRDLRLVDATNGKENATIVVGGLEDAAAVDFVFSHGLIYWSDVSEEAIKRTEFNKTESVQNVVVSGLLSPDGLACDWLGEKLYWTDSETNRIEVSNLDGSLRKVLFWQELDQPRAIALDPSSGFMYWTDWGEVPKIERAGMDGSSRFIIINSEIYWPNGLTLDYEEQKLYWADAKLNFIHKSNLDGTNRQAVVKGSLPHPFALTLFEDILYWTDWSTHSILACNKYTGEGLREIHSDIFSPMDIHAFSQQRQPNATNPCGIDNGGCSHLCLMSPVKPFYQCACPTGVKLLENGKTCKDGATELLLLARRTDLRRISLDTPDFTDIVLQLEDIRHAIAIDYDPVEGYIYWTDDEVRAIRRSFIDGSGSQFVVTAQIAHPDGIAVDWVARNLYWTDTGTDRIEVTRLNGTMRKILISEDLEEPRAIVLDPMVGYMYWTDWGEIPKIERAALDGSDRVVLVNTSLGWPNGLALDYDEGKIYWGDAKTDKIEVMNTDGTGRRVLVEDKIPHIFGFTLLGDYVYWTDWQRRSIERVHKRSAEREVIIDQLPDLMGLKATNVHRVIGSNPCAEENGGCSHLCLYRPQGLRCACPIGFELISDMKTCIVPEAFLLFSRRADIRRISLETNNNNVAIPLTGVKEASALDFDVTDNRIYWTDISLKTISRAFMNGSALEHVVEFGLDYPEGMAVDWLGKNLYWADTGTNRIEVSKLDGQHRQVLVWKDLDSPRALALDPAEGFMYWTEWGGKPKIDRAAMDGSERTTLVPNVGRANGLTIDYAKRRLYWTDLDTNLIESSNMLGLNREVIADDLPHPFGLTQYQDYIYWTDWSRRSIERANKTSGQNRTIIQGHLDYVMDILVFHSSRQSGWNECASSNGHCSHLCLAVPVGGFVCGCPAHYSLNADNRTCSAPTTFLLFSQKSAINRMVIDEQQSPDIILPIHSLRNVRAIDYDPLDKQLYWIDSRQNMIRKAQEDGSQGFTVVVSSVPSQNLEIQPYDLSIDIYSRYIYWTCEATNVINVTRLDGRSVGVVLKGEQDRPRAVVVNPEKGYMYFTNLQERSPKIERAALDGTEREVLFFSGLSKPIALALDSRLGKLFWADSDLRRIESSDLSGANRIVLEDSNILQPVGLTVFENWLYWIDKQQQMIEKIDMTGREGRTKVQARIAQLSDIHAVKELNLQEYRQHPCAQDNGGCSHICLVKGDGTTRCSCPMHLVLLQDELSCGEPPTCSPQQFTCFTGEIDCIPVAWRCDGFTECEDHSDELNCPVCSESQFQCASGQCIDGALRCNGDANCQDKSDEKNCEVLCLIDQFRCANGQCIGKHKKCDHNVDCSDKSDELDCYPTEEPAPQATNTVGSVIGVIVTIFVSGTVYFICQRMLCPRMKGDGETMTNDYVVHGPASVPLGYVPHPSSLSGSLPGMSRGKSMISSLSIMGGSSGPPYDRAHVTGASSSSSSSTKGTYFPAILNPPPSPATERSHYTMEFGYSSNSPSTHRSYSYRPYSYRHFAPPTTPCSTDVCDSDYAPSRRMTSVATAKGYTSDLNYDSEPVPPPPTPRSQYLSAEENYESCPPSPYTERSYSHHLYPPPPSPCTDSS
T1 sequence (O75197 32-1615): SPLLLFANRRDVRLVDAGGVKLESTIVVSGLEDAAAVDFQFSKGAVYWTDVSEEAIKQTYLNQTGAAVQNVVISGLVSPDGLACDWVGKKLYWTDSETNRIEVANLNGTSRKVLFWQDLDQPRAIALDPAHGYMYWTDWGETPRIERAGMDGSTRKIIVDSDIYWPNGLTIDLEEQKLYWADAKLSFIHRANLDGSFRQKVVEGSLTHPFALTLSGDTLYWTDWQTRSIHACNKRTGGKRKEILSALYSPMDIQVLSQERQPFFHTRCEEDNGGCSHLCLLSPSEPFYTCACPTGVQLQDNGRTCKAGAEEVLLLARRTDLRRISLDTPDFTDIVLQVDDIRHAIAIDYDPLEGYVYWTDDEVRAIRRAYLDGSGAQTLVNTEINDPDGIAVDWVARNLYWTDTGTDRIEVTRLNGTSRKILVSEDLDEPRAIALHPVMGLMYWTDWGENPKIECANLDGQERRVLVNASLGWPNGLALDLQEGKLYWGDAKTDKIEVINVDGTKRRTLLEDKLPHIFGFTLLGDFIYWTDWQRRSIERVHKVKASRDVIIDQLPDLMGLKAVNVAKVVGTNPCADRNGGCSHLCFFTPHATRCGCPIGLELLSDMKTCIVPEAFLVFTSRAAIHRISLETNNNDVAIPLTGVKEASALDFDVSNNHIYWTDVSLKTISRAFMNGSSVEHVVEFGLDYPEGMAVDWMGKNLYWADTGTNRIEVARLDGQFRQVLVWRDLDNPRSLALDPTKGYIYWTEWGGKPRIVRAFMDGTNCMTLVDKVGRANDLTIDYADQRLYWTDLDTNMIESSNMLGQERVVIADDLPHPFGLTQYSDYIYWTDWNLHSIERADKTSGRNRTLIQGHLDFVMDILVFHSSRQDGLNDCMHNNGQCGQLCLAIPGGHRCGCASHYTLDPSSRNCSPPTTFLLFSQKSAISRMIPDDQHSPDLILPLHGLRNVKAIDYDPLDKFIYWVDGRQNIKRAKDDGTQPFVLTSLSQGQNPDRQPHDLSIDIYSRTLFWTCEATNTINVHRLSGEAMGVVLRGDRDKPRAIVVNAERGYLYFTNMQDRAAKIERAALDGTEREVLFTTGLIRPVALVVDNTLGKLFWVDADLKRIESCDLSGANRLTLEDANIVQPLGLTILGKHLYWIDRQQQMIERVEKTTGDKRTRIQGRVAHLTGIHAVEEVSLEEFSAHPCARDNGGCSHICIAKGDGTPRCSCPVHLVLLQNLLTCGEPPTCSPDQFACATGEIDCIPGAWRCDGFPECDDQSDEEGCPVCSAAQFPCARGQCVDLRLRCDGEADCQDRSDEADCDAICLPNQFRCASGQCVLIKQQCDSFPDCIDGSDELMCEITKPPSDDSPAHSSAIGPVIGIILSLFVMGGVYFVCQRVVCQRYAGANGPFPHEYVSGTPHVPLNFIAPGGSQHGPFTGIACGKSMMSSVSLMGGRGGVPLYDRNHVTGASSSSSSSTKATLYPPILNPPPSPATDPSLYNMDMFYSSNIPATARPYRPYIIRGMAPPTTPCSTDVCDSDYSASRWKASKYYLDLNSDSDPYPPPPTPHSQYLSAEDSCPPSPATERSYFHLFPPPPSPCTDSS

binding result [4]: no binding (tested: 1 µg/ml)
B5: double (Flag-HA)-tagged version of human Dkk1 (Dkk1-FH) (ligand, UniProt O94907 32-266, looked up)
chain: TLNSVLNSNAIKNLPPPLGGAAGHPGSAVSAAPGILYPGGNKYQTIDNYQPYPCAEDEECGTDEYCASPTRGGDAGVQICLACRKRRKRCMRHAMCCPGNYCKNGICVSSDQNHFRGEIEETITESFGNDHSTLDGYSRRTTLSSKMYHTKGQEGSVCLRSSDCASGLCCARHFWSKICKPVLKEGQVCTKHRRKGSHGLEIFQRCYCGEGLSCRIQKDHHQASNSSRLHTCQRH
notes: not shown: Flag-HA double tag

binding result [1]: no binding | binding result [2]: no binding | binding result [3]: no binding
B6: FBXW5 (other, not shown: small tags and cut ends)
chain: MDEGGTPLLPDSLVYQIFLSLGPADVLAAGLVCRQWQAVSRDEFLWREQFYRYYQVARDVPRHPAAMSWYEEFQRLYDTVPCVEVQTLREHTDQVLHLSFSHSGYQFASCSKDCTVKIWSNDLTISLLHSADMRPYNWSYTQFSQFNKDDSLLLASGVFLGPHNSSSGEIAVISLDSFALLSRVRNKPYDVFGCWLTETSLISGNLHRIGDITSCSVLWLNNAFQDVESENVNVVKRLFKIQNLNASTVRTVMVADCSRFDSPDLLLEAGDPATSPCRIFDLGSDNEEVVAGPAPAHAKEGLRHFLDRVLEGRAQPQLSERMLETKVAELLAQGHTKPPERSATGAKSKYLIFTTGCLTYSPHQIGIKQILPHQMTTAGPVLGEGRGSDAFFDALDHVIDIHGHIIGMGLSPDNRYLYVNSRAWPNGAVVADPMQPPPIAEEIDLLVFDLKTMREVRRALRAHRAYTPNDECFFIFLDVSRDFVASGAEDRHGYIWDRHYNICLARLRHEDVVNSVVFSPQEQELLLTASDDATIKAWRSPRTMRVLQAPRPRPRTFFSWLASQRR
notes: TAP-MS bait

binding result [1]: no binding | binding result [2]: no binding | binding result [3]: no binding
B7: eEF2K (enzyme, not shown: small tags and cut ends)
chain: ADEDLIFRLEGVDGGQSPRAGHDGDSDGDSDDEEGYFICPITDDPSSNQNVNSKVNKYYSNLTKSERYSSSGSPANSFHFKEAWKHAIQKAKHMPDPWAEFHLEDIATERATRHRYNAVTGEWLDDEVLIKMASQPFGRGAMRECFRTKKLSNFLHAQQWKGASNYVAKRYIEPVDRDVYFEDVRLQMEAKLWGEEYNRHKPPKQVDIMQMCIIELKDRPGKPLFHLEHYIEGKYIKYNSNSGFVRDDNIRLTPQAFSHFTFERSGHQLIVVDIQGVGDLYTDPQIHTETGTDFGDGNLGVRGMALFFYSHACNRICESMGLAPFDLSPRERDAVNQNTKLLQSAKTILRGTEEKCGSPQVRTLSGSRPPLLRPLSENSGDENMSDVTFDSLPSSPSSATPHSQKLDHLHWPVFSDLDNMASRDHDHLDNHRESENSGDSGYPSEKRGELDDPEPREHGHSYSNRKYESDEDSLGSSGRVCVEKWNLLNSSRLHLPRASAVALEVQRLNALDLEKKIGKSILGKVHLAMVRYHEGGRFCEKGEEWDQESAVFHLEHAANLGELEAIVGLGLMYSQLPHHILADVSLKETEENKTKGFDYLLKAAEAGDRQSMILVARAFDSGQNLSPDRCQDWLEALHWYNTALEMTDCDEGGEYDGMQDEPRYMMLAREAEMLFTGGYGLEKDPQRSGDLYTQAAEAAMEAMKGRLANQYYQKAEEAWAQMEE
notes: TAP-MS bait

binding result [1]: no binding | binding result [2]: no binding | binding result [3]: no binding
B8: FBXL2 (other, not shown: small tags and cut ends)
chain: MVFSNNDEGLINKKLPKELLLRIFSFLDIVTLCRCAQISKAWNILALDGSNWQRIDLFNFQTDVEGRVVENISKRCGGFLRKLSLRGCIGVGDSSLKTFAQNCRNIEHLNLNGCTKITDSTCYSLSRFCSKLKHLDLTSCVSITNSSLKGISEGCRNLEYLNLSWCDQITKDGIEALVRGCRGLKALLLRGCTQLEDEALKHIQNYCHELVSLNLQSCSRITDEGVVQICRGCHRLQALCLSGCSNLTDASLTALGLNCPRLQILEAARCSHLTDAGFTLLARNCHELEKMDLEECILITDSTLIQLSIHCPKLQALSLSHCELITDDGILHLSNSTCGHERLRVLELDNCLLITDVALEHLENCRGLERLELYDCQQVTRAGIKRMRAQLPHVKVHAYFAPVTPPTAVAGSGQRLCRCCVIL
notes: TAP-MS bait

The next lines start with the binder.

B1: KCTD21 (other, not shown: small tags and cut ends)
chain: MSDPITLNVGGKLYTTSLATLTSFPDSMLGAMFSGKMPTKRDSQGNCFIDRDGKVFRYILNFLRTSHLDLPEDFQEMGLLRREADFYQVQPLIEALQEKEVELSKAEKNAMLNITLNQRVQTVHFTVREAPQIYSLSSSSMEVFNANIFSTSCLFLKLLGSKLFYCSNGNLSSITSHLQDPNHLTLDWVANVEGLPEEEYTKQNLKRLWVVPANKQINSFQVFVEEVLKIALSDGFCIDSSHPHALDFMNNKIIRLIRYR
notes: TAP-MS bait
binding result [1]: no binding | binding result [2]: no binding | binding result [3]: no binding

B2: UCHL1 (enzyme, not shown: small tags and cut ends)
chain: MQLKPMEINPEMLNKVLSRLGVAGQWRFVDVLGLEEESLGSVPAPACALLLLFPLTAQHENFRKKQIEELKGQEVSPKVYFMKQTIGNSCGTIGLIHAVANNQDKLGFEDGSVLKQFLSETEKMSPEDRAKCFEKNEAIQAAHDAVAQEGQCRVDDKVNFHFILFNNVDGHLYELDGRMPFPVNHGASSEDTLLKDAAKVCREFTEREQGEVRFSAVALC
notes: TAP-MS bait
binding result [1]: no binding | binding result [2]: no binding | binding result [3]: no binding

B3: EMI1 (other, not shown: small tags and cut ends)
chain: MSRRPCSCALRPPRCSCSASPSAVTAAGRPRPSDSCKEESSTLSVKMKCDFNCNHVHSGLKLVKPDDIGRLVSYTPAYLEGSCKDCIKDYERLSCIGSPIVSPRIVQLETESKRLHNKENQHVQQTLNSTNEIEALETSRLYEDSGYSSFSLQSGLSEHEEGSLLEENFGDSLQSCLLQIQSPDQYPNKNLLPVLHFEKVVCSTLKKNAKRNPKVDREMLKEIIARGNFRLQNIIGRKMGLECVDILSELFRRGLRHVLATILAQLSDMDLINVSKVSTTWKKILEDDKGAFQLYSKAIQRVTENNNKFSPHASTREYVMFRTPLASVQKSAAQTSLKKDAQTKLSNQGDQKGSTYSRHNEFSEVAKTLKKNESLKACIRCNSPAKYDCYLQRATCKREGCGFDYCTKCLCNYHTTKDCSDGKLLKASCKIGPLPGTKKSKKNLRRL
notes: TAP-MS bait
binding result [1]: no binding | binding result [2]: no binding | binding result [3]: no binding

B4: FBXW4 (other, not shown: small tags and cut ends)
chain: MAAAAGEEEEEEEAARESAARPAAGPALWRLPEELLLLICSYLDMRALGRLAQVCRWLRRFTSCDLLWRRIARASLNSGFTRLGTDLMTSVPVKERVKVSQNWRLGRCREGILLKWRCSQMPWMQLEDDSLYISQANFILAYQFRPDGASLNRRPLGVFAGHDEDVCHFVLANSHIVSAGGDGKIGIHKIHSTFTVKYSAHEQEVNCVDCKGGIIVSGSRDRTAKVWPLASGRLGQCLHTIQTEDRVWSIAISPLLSSFVTGTACCGHFSPLRIWDLNSGQLMTHLGSDFPPGAGVLDVMYESPFTLLSCGYDTYVRYWDLRTSVRKCVMEWEEPHDSTLYCLQTDGNHLLATGSSYYGVVRLWDRRQRACLHAFPLTSTPLSSPVYCLRLTTKHLYAALSYNLHVLDFQNP
notes: TAP-MS bait
binding result [1]: no binding | binding result [2]: no binding | binding result [3]: no binding
